Experimental data: the Human Domainome abundance scans (Beltran et al. 2025)
± gives the uncertainty stated by the source.

Test: abundance fitness (aPCA) (normalised: wild type 0, dead -1); higher = more abundant; growth selection in yeast, the domain comes from the species named
Conditions: Homo sapiens
“BAG family molecular chaperone regulator 3 V40W, O95817” gave an abundance fitness of -0.468 ± 0.21.
In the case of “BAG family molecular chaperone regulator 3 V54A, O95817”, the abundance fitness is reported as -0.719 ± 0.26.
With “BAG family molecular chaperone regulator 3 V54C, O95817” the abundance fitness was -0.022 ± 0.12.
Work on “BAG family molecular chaperone regulator 3 V54D, O95817” yielded an abundance fitness of -0.08 ± 0.23.
“BAG family molecular chaperone regulator 3 V54E, O95817” showed an abundance fitness of -0.591 ± 0.28.
Substance “BAG family molecular chaperone regulator 3 V54F, O95817” has an abundance fitness of -0.375 ± 0.31.
“BAG family molecular chaperone regulator 3 V54G, O95817” showed an abundance fitness of -0.07 ± 0.077.
Work on “BAG family molecular chaperone regulator 3 V54I, O95817” yielded an abundance fitness of -0.335 ± 0.13.
Work on “BAG family molecular chaperone regulator 3 V54K, O95817” yielded an abundance fitness of -0.008 ± 0.14.
“BAG family molecular chaperone regulator 3 V54L, O95817” showed an abundance fitness of 0.369 ± 0.097.
“BAG family molecular chaperone regulator 3 V54M, O95817” gave an abundance fitness of 0.19 ± 0.22.
With “BAG family molecular chaperone regulator 3 V54P, O95817” the abundance fitness was -0.832 ± 0.42.
In the case of “BAG family molecular chaperone regulator 3 V54Q, O95817”, the abundance fitness is reported as -0.084 ± 0.23.
“BAG family molecular chaperone regulator 3 V54R, O95817” showed an abundance fitness of -0.083 ± 0.081.
For “BAG family molecular chaperone regulator 3 V54S, O95817”, the abundance fitness was -0.13 ± 0.13.
With “BAG family molecular chaperone regulator 3 V54W, O95817” the abundance fitness was -0.961 ± 0.37.
“BAG family molecular chaperone regulator 3 V54Y, O95817” gave an abundance fitness of -0.376 ± 0.25.
In the case of “BAG family molecular chaperone regulator 3 W26A, O95817”, the abundance fitness is reported as -0.534 ± 0.092.
With “BAG family molecular chaperone regulator 3 W26D, O95817” the abundance fitness was -0.621 ± 0.37.
In the case of “BAG family molecular chaperone regulator 3 W26E, O95817”, the abundance fitness is reported as -0.885 ± 0.25.
For “BAG family molecular chaperone regulator 3 W26F, O95817”, the abundance fitness was 0.4 ± 0.21.
Work on “BAG family molecular chaperone regulator 3 W26G, O95817” yielded an abundance fitness of -0.653 ± 0.17.
Substance “BAG family molecular chaperone regulator 3 W26H, O95817” has an abundance fitness of -0.362 ± 0.069.
In the case of “BAG family molecular chaperone regulator 3 W26I, O95817”, the abundance fitness is reported as -0.608 ± 0.34.
In the case of “BAG family molecular chaperone regulator 3 W26K, O95817”, the abundance fitness is reported as 0.189 ± 0.081.
For “BAG family molecular chaperone regulator 3 W26L, O95817”, the abundance fitness was -0.583 ± 0.14.
With “BAG family molecular chaperone regulator 3 W26M, O95817” the abundance fitness was -0.721 ± 0.2.
Work on “BAG family molecular chaperone regulator 3 W26P, O95817” yielded an abundance fitness of -0.892 ± 0.39.
“BAG family molecular chaperone regulator 3 W26Q, O95817” showed an abundance fitness of -0.641 ± 0.33.
“BAG family molecular chaperone regulator 3 W26R, O95817” showed an abundance fitness of -0.228 ± 0.1.
Work on “BAG family molecular chaperone regulator 3 W26S, O95817” yielded an abundance fitness of -0.381 ± 0.12.
“BAG family molecular chaperone regulator 3 W26T, O95817” showed an abundance fitness of -0.335 ± 0.074.
For “BAG family molecular chaperone regulator 3 W26V, O95817”, the abundance fitness was -0.467 ± 0.2.
Substance “BAG family molecular chaperone regulator 3 W26Y, O95817” has an abundance fitness of -0.326 ± 0.48.
With “BAG family molecular chaperone regulator 3 W36A, O95817” the abundance fitness was 0.844 ± 0.49.
With “BAG family molecular chaperone regulator 3 W36E, O95817” the abundance fitness was 1.43 ± 0.23.
In the case of “BAG family molecular chaperone regulator 3 W36G, O95817”, the abundance fitness is reported as 0.48 ± 0.35.
In the case of “BAG family molecular chaperone regulator 3 W36K, O95817”, the abundance fitness is reported as 1.09 ± 0.12.
For “BAG family molecular chaperone regulator 3 W36R, O95817”, the abundance fitness was 0.623 ± 0.3.
For “BAG family molecular chaperone regulator 3 W36S, O95817”, the abundance fitness was 1.56 ± 0.45.
In the case of “BAG family molecular chaperone regulator 3 W36T, O95817”, the abundance fitness is reported as 1.25 ± 0.32.
For “BAG family molecular chaperone regulator 3 W36V, O95817”, the abundance fitness was 1.02 ± 0.24.
With “BAG family molecular chaperone regulator 3 W49C, O95817” the abundance fitness was -0.634 ± 0.29.
“BAG family molecular chaperone regulator 3 W49D, O95817” showed an abundance fitness of -0.572 ± 0.44.
“BAG family molecular chaperone regulator 3 W49E, O95817” gave an abundance fitness of -0.221 ± 0.12.
With “BAG family molecular chaperone regulator 3 W49F, O95817” the abundance fitness was -0.227 ± 0.42.
For “BAG family molecular chaperone regulator 3 W49G, O95817”, the abundance fitness was -0.748 ± 0.15.
Work on “BAG family molecular chaperone regulator 3 W49L, O95817” yielded an abundance fitness of -0.588 ± 0.081.
